Test results reported in the RNAGym collection of RNA variant scans (doi:10.1021/acssynbio.7b00057).

B1: Pistol ribozyme (parent)
chain: GGGUCGUUGUUCCAUAAUCGCGUGGAUAUGGCACGCAAGUUUCUACCGGGCACCGUAAAUGUCCGACUGGAGCCGUUCGGGCGGCUAUAAACAGACCUCAGGCCCGAAGCGUGGCGGCACCUGCCGCCGGUGGUAAAAAAGAUCGGAAGAGCACACGUCU

Variants of: B1
Assay: aptazyme ON/OFF ratio, guanine; higher = stronger switching; co-transcriptional cleavage with and without guanine

Point of comparison: GGGUCGCCCCUUUAUAAUCGCGUGGAUAUGGCACGCAAGUUUCUACCGGGCACCGUAAAUGUCCGACUGGAGCCGUUCGGGCGGCUAUAAACAGACCUCAGGCCCGAAGCGUGGCGGCACCUGCCGCCGGUGGUAAAAAAGAUCGGAAGAGCACACGUCU, “aptazyme ON/OFF ratio” value 1.09. Against it:
- GGGUCGCCCCAGGAUAAUCGCGUGGAUAUGGCACGCAAGUUUCUACCGGGCACCGUAAAUGUCCGACUGGAGCCGUUCGGGCGGCUAUAAACAGACCUCAGGCCCGAAGCGUGGCGGCACCUGCCGCCGGUGGUAAAAAAGAUCGGAAGAGCACACGUCU — higher, 1.13
- GGGUCGCCCCAGUAUAAUCGCGUGGAUAUGGCACGCAAGUUUCUACCGGGCACCGUAAAUGUCCGACUGGAGCCGUUCGGGCGGCUAUAAACAGACCUCAGGCCCGAAGCGUGGCGGCACCUGCCGCCGGUGGUAAAAAAGAUCGGAAGAGCACACGUCU — lower, 1.05
- GGGUCGCCCCAGAAUAAUCGCGUGGAUAUGGCACGCAAGUUUCUACCGGGCACCGUAAAUGUCCGACUGGAGCCGUUCGGGCGGCUAUAAACAGACCUCAGGCCCGAAGCGUGGCGGCACCUGCCGCCGGUGGUAAAAAAGAUCGGAAGAGCACACGUCU — higher, 1.11
- GGGUCGCCCCCCCAUAAUCGCGUGGAUAUGGCACGCAAGUUUCUACCGGGCACCGUAAAUGUCCGACUGGAGCCGUUCGGGCGGCUAUAAACAGACCUCAGGCCCGAAGCGUGGCGGCACCUGCCGCCGGUGGUAAAAAAGAUCGGAAGAGCACACGUCU — higher, 1.14
- GGGUCGCCCCACCAUAAUCGCGUGGAUAUGGCACGCAAGUUUCUACCGGGCACCGUAAAUGUCCGACUGGAGCCGUUCGGGCGGCUAUAAACAGACCUCAGGCCCGAAGCGUGGCGGCACCUGCCGCCGGUGGUAAAAAAGAUCGGAAGAGCACACGUCU — higher, 1.4
- GGGUCGCCCCCUUAUAAUCGCGUGGAUAUGGCACGCAAGUUUCUACCGGGCACCGUAAAUGUCCGACUGGAGCCGUUCGGGCGGCUAUAAACAGACCUCAGGCCCGAAGCGUGGCGGCACCUGCCGCCGGUGGUAAAAAAGAUCGGAAGAGCACACGUCU — lower, 1.03
- GGGUCGCCCCCUGAUAAUCGCGUGGAUAUGGCACGCAAGUUUCUACCGGGCACCGUAAAUGUCCGACUGGAGCCGUUCGGGCGGCUAUAAACAGACCUCAGGCCCGAAGCGUGGCGGCACCUGCCGCCGGUGGUAAAAAAGAUCGGAAGAGCACACGUCU — lower, 1.08
- GGGUCGCCCCCUAAUAAUCGCGUGGAUAUGGCACGCAAGUUUCUACCGGGCACCGUAAAUGUCCGACUGGAGCCGUUCGGGCGGCUAUAAACAGACCUCAGGCCCGAAGCGUGGCGGCACCUGCCGCCGGUGGUAAAAAAGAUCGGAAGAGCACACGUCU — lower, 1.08
- GGGUCGCCCCACGAUAAUCGCGUGGAUAUGGCACGCAAGUUUCUACCGGGCACCGUAAAUGUCCGACUGGAGCCGUUCGGGCGGCUAUAAACAGACCUCAGGCCCGAAGCGUGGCGGCACCUGCCGCCGGUGGUAAAAAAGAUCGGAAGAGCACACGUCU — higher, 1.13
- GGGUCGCCCCACUAUAAUCGCGUGGAUAUGGCACGCAAGUUUCUACCGGGCACCGUAAAUGUCCGACUGGAGCCGUUCGGGCGGCUAUAAACAGACCUCAGGCCCGAAGCGUGGCGGCACCUGCCGCCGGUGGUAAAAAAGAUCGGAAGAGCACACGUCU — lower, 1.05
- GGGUCGCCCCACAAUAAUCGCGUGGAUAUGGCACGCAAGUUUCUACCGGGCACCGUAAAUGUCCGACUGGAGCCGUUCGGGCGGCUAUAAACAGACCUCAGGCCCGAAGCGUGGCGGCACCUGCCGCCGGUGGUAAAAAAGAUCGGAAGAGCACACGUCU — higher, 1.14
- GGGUCGCCCCAAGAUAAUCGCGUGGAUAUGGCACGCAAGUUUCUACCGGGCACCGUAAAUGUCCGACUGGAGCCGUUCGGGCGGCUAUAAACAGACCUCAGGCCCGAAGCGUGGCGGCACCUGCCGCCGGUGGUAAAAAAGAUCGGAAGAGCACACGUCU — lower, 1.06
- GGGUCGCCCCAAAAUAAUCGCGUGGAUAUGGCACGCAAGUUUCUACCGGGCACCGUAAAUGUCCGACUGGAGCCGUUCGGGCGGCUAUAAACAGACCUCAGGCCCGAAGCGUGGCGGCACCUGCCGCCGGUGGUAAAAAAGAUCGGAAGAGCACACGUCU — lower, 1.07
- GGGUCGCCCCAAUAUAAUCGCGUGGAUAUGGCACGCAAGUUUCUACCGGGCACCGUAAAUGUCCGACUGGAGCCGUUCGGGCGGCUAUAAACAGACCUCAGGCCCGAAGCGUGGCGGCACCUGCCGCCGGUGGUAAAAAAGAUCGGAAGAGCACACGUCU — higher, 1.1
- GGGUCGCCCCCACAUAAUCGCGUGGAUAUGGCACGCAAGUUUCUACCGGGCACCGUAAAUGUCCGACUGGAGCCGUUCGGGCGGCUAUAAACAGACCUCAGGCCCGAAGCGUGGCGGCACCUGCCGCCGGUGGUAAAAAAGAUCGGAAGAGCACACGUCU — lower, 1.04
- GGGUCGCCCCCGCAUAAUCGCGUGGAUAUGGCACGCAAGUUUCUACCGGGCACCGUAAAUGUCCGACUGGAGCCGUUCGGGCGGCUAUAAACAGACCUCAGGCCCGAAGCGUGGCGGCACCUGCCGCCGGUGGUAAAAAAGAUCGGAAGAGCACACGUCU — higher, 1.13
- GGGUCGCCCCCUCAUAAUCGCGUGGAUAUGGCACGCAAGUUUCUACCGGGCACCGUAAAUGUCCGACUGGAGCCGUUCGGGCGGCUAUAAACAGACCUCAGGCCCGAAGCGUGGCGGCACCUGCCGCCGGUGGUAAAAAAGAUCGGAAGAGCACACGUCU — lower, 1.06
- GGGUCGCCCCCGGAUAAUCGCGUGGAUAUGGCACGCAAGUUUCUACCGGGCACCGUAAAUGUCCGACUGGAGCCGUUCGGGCGGCUAUAAACAGACCUCAGGCCCGAAGCGUGGCGGCACCUGCCGCCGGUGGUAAAAAAGAUCGGAAGAGCACACGUCU — higher, 1.19
- GGGUCGCCCCCGUAUAAUCGCGUGGAUAUGGCACGCAAGUUUCUACCGGGCACCGUAAAUGUCCGACUGGAGCCGUUCGGGCGGCUAUAAACAGACCUCAGGCCCGAAGCGUGGCGGCACCUGCCGCCGGUGGUAAAAAAGAUCGGAAGAGCACACGUCU — higher, 1.1
- GGGUCGCCCCCGAAUAAUCGCGUGGAUAUGGCACGCAAGUUUCUACCGGGCACCGUAAAUGUCCGACUGGAGCCGUUCGGGCGGCUAUAAACAGACCUCAGGCCCGAAGCGUGGCGGCACCUGCCGCCGGUGGUAAAAAAGAUCGGAAGAGCACACGUCU — higher, 1.28
- GGGUCGCCCCAUUAUAAUCGCGUGGAUAUGGCACGCAAGUUUCUACCGGGCACCGUAAAUGUCCGACUGGAGCCGUUCGGGCGGCUAUAAACAGACCUCAGGCCCGAAGCGUGGCGGCACCUGCCGCCGGUGGUAAAAAAGAUCGGAAGAGCACACGUCU — higher, 1.1
- GGGUCGCCCCAUAAUAAUCGCGUGGAUAUGGCACGCAAGUUUCUACCGGGCACCGUAAAUGUCCGACUGGAGCCGUUCGGGCGGCUAUAAACAGACCUCAGGCCCGAAGCGUGGCGGCACCUGCCGCCGGUGGUAAAAAAGAUCGGAAGAGCACACGUCU — lower, 1.08
- GGGUCGCCCCAUGAUAAUCGCGUGGAUAUGGCACGCAAGUUUCUACCGGGCACCGUAAAUGUCCGACUGGAGCCGUUCGGGCGGCUAUAAACAGACCUCAGGCCCGAAGCGUGGCGGCACCUGCCGCCGGUGGUAAAAAAGAUCGGAAGAGCACACGUCU — higher, 1.11
- GGGUCGCCCCCCGAUAAUCGCGUGGAUAUGGCACGCAAGUUUCUACCGGGCACCGUAAAUGUCCGACUGGAGCCGUUCGGGCGGCUAUAAACAGACCUCAGGCCCGAAGCGUGGCGGCACCUGCCGCCGGUGGUAAAAAAGAUCGGAAGAGCACACGUCU — higher, 1.12
- GGGUCGCCCCCCAAUAAUCGCGUGGAUAUGGCACGCAAGUUUCUACCGGGCACCGUAAAUGUCCGACUGGAGCCGUUCGGGCGGCUAUAAACAGACCUCAGGCCCGAAGCGUGGCGGCACCUGCCGCCGGUGGUAAAAAAGAUCGGAAGAGCACACGUCU — lower, 1.06
- GGGUCGCCCCCAUAUAAUCGCGUGGAUAUGGCACGCAAGUUUCUACCGGGCACCGUAAAUGUCCGACUGGAGCCGUUCGGGCGGCUAUAAACAGACCUCAGGCCCGAAGCGUGGCGGCACCUGCCGCCGGUGGUAAAAAAGAUCGGAAGAGCACACGUCU — lower, 1.02
- GGGUCGCCCCCAAAUAAUCGCGUGGAUAUGGCACGCAAGUUUCUACCGGGCACCGUAAAUGUCCGACUGGAGCCGUUCGGGCGGCUAUAAACAGACCUCAGGCCCGAAGCGUGGCGGCACCUGCCGCCGGUGGUAAAAAAGAUCGGAAGAGCACACGUCU — lower, 0.986
- GGGUCGCCCCCAGAUAAUCGCGUGGAUAUGGCACGCAAGUUUCUACCGGGCACCGUAAAUGUCCGACUGGAGCCGUUCGGGCGGCUAUAAACAGACCUCAGGCCCGAAGCGUGGCGGCACCUGCCGCCGGUGGUAAAAAAGAUCGGAAGAGCACACGUCU — the same, 1.09
- GGGUCGCCCCUUGAUAAUCGCGUGGAUAUGGCACGCAAGUUUCUACCGGGCACCGUAAAUGUCCGACUGGAGCCGUUCGGGCGGCUAUAAACAGACCUCAGGCCCGAAGCGUGGCGGCACCUGCCGCCGGUGGUAAAAAAGAUCGGAAGAGCACACGUCU — higher, 1.14
- GGGUCGCCCCUCGAUAAUCGCGUGGAUAUGGCACGCAAGUUUCUACCGGGCACCGUAAAUGUCCGACUGGAGCCGUUCGGGCGGCUAUAAACAGACCUCAGGCCCGAAGCGUGGCGGCACCUGCCGCCGGUGGUAAAAAAGAUCGGAAGAGCACACGUCU — higher, 1.12
- GGGUCGCCCCUCAAUAAUCGCGUGGAUAUGGCACGCAAGUUUCUACCGGGCACCGUAAAUGUCCGACUGGAGCCGUUCGGGCGGCUAUAAACAGACCUCAGGCCCGAAGCGUGGCGGCACCUGCCGCCGGUGGUAAAAAAGAUCGGAAGAGCACACGUCU — lower, 1.04
- GGGUCGCCCCUCUAUAAUCGCGUGGAUAUGGCACGCAAGUUUCUACCGGGCACCGUAAAUGUCCGACUGGAGCCGUUCGGGCGGCUAUAAACAGACCUCAGGCCCGAAGCGUGGCGGCACCUGCCGCCGGUGGUAAAAAAGAUCGGAAGAGCACACGUCU — higher, 2.85
- GGGUCGCCCCAGCAUAAUCGCGUGGAUAUGGCACGCAAGUUUCUACCGGGCACCGUAAAUGUCCGACUGGAGCCGUUCGGGCGGCUAUAAACAGACCUCAGGCCCGAAGCGUGGCGGCACCUGCCGCCGGUGGUAAAAAAGAUCGGAAGAGCACACGUCU — higher, 1.11
- GGGUCGCCCCAUCAUAAUCGCGUGGAUAUGGCACGCAAGUUUCUACCGGGCACCGUAAAUGUCCGACUGGAGCCGUUCGGGCGGCUAUAAACAGACCUCAGGCCCGAAGCGUGGCGGCACCUGCCGCCGGUGGUAAAAAAGAUCGGAAGAGCACACGUCU — lower, 1.02
- GGGUCGCCCCAACAUAAUCGCGUGGAUAUGGCACGCAAGUUUCUACCGGGCACCGUAAAUGUCCGACUGGAGCCGUUCGGGCGGCUAUAAACAGACCUCAGGCCCGAAGCGUGGCGGCACCUGCCGCCGGUGGUAAAAAAGAUCGGAAGAGCACACGUCU — higher, 1.12
